Measurements from the Human Domainome abundance scans (Beltran et al. 2025).
± gives the uncertainty stated by the source.

B1: Activity-dependent neuroprotector homeobox protein, residues 770 to 810; numbered along this chain, Q9H2P0 (parent)
chain: FLTKYFNKQPYPTRREIEKLAASLWLWKSDIASHFSNKRKK

Variants of: B1
Experiment: abundance fitness (aPCA) (normalised: wild type 0, dead -1); higher = more abundant; growth selection in yeast, the domain comes from the species named
Settings: Homo sapiens

Point of comparison: FLTKYFNKQPYPTRREIEKLAASLYLWKSDIASHFSNKRKK [W25Y], abundance fitness -0.233 ± 0.22. Against it:
- FLTKYFNKQPYPTRREIEKLAASLWLWKSDIAKHFSNKRKK [S33K] — within error, 0.044 ± 0.085
- FLTKYFNKQPYPTRREIEKLAASLWLWKSDIAHHFSNKRKK [S33H] — within error, 0.018 ± 0.091
- FLTKYFNKQPYPTRREIEKLAASLWLWKSDIAGHFSNKRKK [S33G] — within error, -0.023 ± 0.051
- FLTKYFNKQPYPTRREIEKLAASLWLWKSDIACHFSNKRKK [S33C] — within error, -0.058 ± 0.06
- FLTKYFNKQPYPTRREIEKLAASLWLWKSDIADHFSNKRKK [S33D] — within error, -0.267 ± 0.14
- FLTKYFNKQPYPTRREIEKLAASLWLWKSDIAFHFSNKRKK [S33F] — within error, -0.244 ± 0.073
- FLTKYFNKQPYPTRREIEKLAASLWLWKSDIAIHFSNKRKK [S33I] — within error, -0.149 ± 0.098
- FLTKYFNKQPYPTRREIEKLAASLWLWKSDIAAHFSNKRKK [S33A] — within error, 0.014 ± 0.058
- FLTKYFNKQPYPTRREIEKLAASLQLWKSDIASHFSNKRKK [W25Q] — higher, 0.068 ± 0.08
- FLTKYFNKQPYPTRREIEKLAASLMLWKSDIASHFSNKRKK [W25M] — within error, -0.009 ± 0.1
- FLTKYFNKQPYPTRREIEKLAASLSLWKSDIASHFSNKRKK [W25S] — higher, 0.134 ± 0.051
- FLTKYFNKQPYPTRREIEKLAASLPLWKSDIASHFSNKRKK [W25P] — within error, -0.176 ± 0.065
- FLTKYFNKQPYPTRREIEKLAASLRLWKSDIASHFSNKRKK [W25R] — higher, 0.254 ± 0.052
- FLTKYFNKQPYPTRREIEKLAASLNLWKSDIASHFSNKRKK [W25N] — within error, -0.021 ± 0.096
- FLTKYFNKQPYPTRREIEKLAASLTLWKSDIASHFSNKRKK [W25T] — higher, 0.141 ± 0.054
- FLTKYFNKQPYPTRREIEKLAASLVLWKSDIASHFSNKRKK [W25V] — higher, 0.133 ± 0.055
- FLTKYFNKQPYPTRREIEKLAASLWLNKSDIASHFSNKRKK [W27N] — within error, -0.295 ± 0.091
- FLTKYFNKQPYPTRREIEKLAASLWLYKSDIASHFSNKRKK [W27Y] — within error, -0.227 ± 0.066
- FLTKYFNKQPYPTRREIEKLAASLWLTKSDIASHFSNKRKK [W27T] — within error, -0.152 ± 0.062
- FLTKYFNKQPYPTRREIEKLAASLWLDKSDIASHFSNKRKK [W27D] — within error, -0.22 ± 0.17
- FLTKYFNKQPYPTRREIEKLAASLWLRKSDIASHFSNKRKK [W27R] — within error, 0.025 ± 0.052
- FLTKYFNKQPYPTRREIEKLAASLWLVKSDIASHFSNKRKK [W27V] — within error, -0.061 ± 0.052
- FLTKYFNKQPYPTRREIEKLAASLWLHKSDIASHFSNKRKK [W27H] — within error, -0.137 ± 0.081
- FLTKYFNKQPYPTRREIEKLAASLWLGKSDIASHFSNKRKK [W27G] — within error, 0.037 ± 0.064
- FLTKYFNKQPYPTRREIEKLAASLWLCKSDIASHFSNKRKK [W27C] — within error, -0.188 ± 0.061
- FLTKYFNKQPYPTRREIEKLAASLWLKKSDIASHFSNKRKK [W27K] — higher, 0.067 ± 0.06
- FLTKYFNKQPYPTRREIEKLAASLWLMKSDIASHFSNKRKK [W27M] — within error, -0.031 ± 0.099
- FLTKYFNKQPYPTRREIEKLAASLWLAKSDIASHFSNKRKK [W27A] — within error, -0.084 ± 0.052
- FLTKYFNKQPYPTRREIEKLAASLWLEKSDIASHFSNKRKK [W27E] — within error, -0.74 ± 0.33
- FLTKYFNKQPYPTRREIEKLAASLWLPKSDIASHFSNKRKK [W27P] — within error, -0.398 ± 0.08
- FLTKYFNKQPYPTRREIEKLAASLWLQKSDIASHFSNKRKK [W27Q] — within error, -0.492 ± 0.13
- FLTKYFNKQPYPTRREIEKLAASLWLLKSDIASHFSNKRKK [W27L] — within error, -0.04 ± 0.05
- FLTKYFNKQPYPTRREIEKLAASLWLWKRDIASHFSNKRKK [S29R] — within error, -0.088 ± 0.073
- FLTKYFNKQPYPTRREIEKLAASLWLWKHDIASHFSNKRKK [S29H] — higher, 0.077 ± 0.076
- FLTKYFNKQPYPTRREIEKLAASLWLWKMDIASHFSNKRKK [S29M] — within error, -0.124 ± 0.14
- FLTKYFNKQPYPTRREIEKLAASLWLWKGDIASHFSNKRKK [S29G] — within error, -0.014 ± 0.057
- FLTKYFNKQPYPTRREIEKLAASLWLWKQDIASHFSNKRKK [S29Q] — higher, 0.173 ± 0.056
- FLTKYFNKQPYPTRREIEKLAASLWLWKIDIASHFSNKRKK [S29I] — within error, 0.031 ± 0.2
- FLTKYFNKQPYPTRREIEKLAASLWLWKKDIASHFSNKRKK [S29K] — higher, 0.208 ± 0.094
- FLTKYFNKQPYPTRREIEKLAASLWLWKVDIASHFSNKRKK [S29V] — within error, -0.302 ± 0.11
- FLTKYFNKQPYPTRREIEKLAASLWLWKEDIASHFSNKRKK [S29E] — within error, -0.294 ± 0.12
- FLTKYFNKQPYPTRREIEKLAASLWLWKLDIASHFSNKRKK [S29L] — within error, -0.145 ± 0.058
- FLTKYFNKQPYPTRREIEKLAASLWLWKCDIASHFSNKRKK [S29C] — within error, -0.206 ± 0.11
- FLTKYFNKQPYPTRREIEKLAASLWLWKFDIASHFSNKRKK [S29F] — within error, -0.43 ± 0.2
- FLTKYFNKQPYPTRREIEKLAASLWLWKPDIASHFSNKRKK [S29P] — higher, 0.229 ± 0.098
- FLTKYFNKQPYPTRREIEKLAASLWLWKSDTASHFSNKRKK [I31T] — within error, -0.061 ± 0.062
- FLTKYFNKQPYPTRREIEKLAASLWLWKSDYASHFSNKRKK [I31Y] — within error, -0.189 ± 0.064
- FLTKYFNKQPYPTRREIEKLAASLWLWKSDAASHFSNKRKK [I31A] — higher, 0.109 ± 0.064
- FLTKYFNKQPYPTRREIEKLAASLWLWKSDNASHFSNKRKK [I31N] — within error, -0.153 ± 0.072
- FLTKYFNKQPYPTRREIEKLAASLWLWKSDQASHFSNKRKK [I31Q] — within error, -0.116 ± 0.058
- FLTKYFNKQPYPTRREIEKLAASLWLWKSDDASHFSNKRKK [I31D] — within error, 0.022 ± 0.096
- FLTKYFNKQPYPTRREIEKLAASLWLWKSDLASHFSNKRKK [I31L] — within error, -0.043 ± 0.05
- FLTKYFNKQPYPTRREIEKLAASLWLWKSDCASHFSNKRKK [I31C] — within error, -0.075 ± 0.065
- FLTKYFNKQPYPTRREIEKLAASLWLWKSDRASHFSNKRKK [I31R] — within error, -0.205 ± 0.053
- FLTKYFNKQPYPTRREIEKLAASLWLWKSDSASHFSNKRKK [I31S] — within error, -0.154 ± 0.05
- FLTKYFNKQPYPTRREIEKLAASLWLWKSDWASHFSNKRKK [I31W] — within error, -0.129 ± 0.086
- FLTKYFNKQPYPTRREIEKLAASLWLWKSDMASHFSNKRKK [I31M] — higher, 0.056 ± 0.058
- FLTKYFNKQPYPTRREIEKLAASLWLWKSDPASHFSNKRKK [I31P] — within error, -0.098 ± 0.064
- FLTKYFNKQPYPTRREIEKLAASLWLWKSDVASHFSNKRKK [I31V] — higher, 0.16 ± 0.056
- FLTKYFNKQPYPTRREIEKLAASLWLWKSDFASHFSNKRKK [I31F] — within error, -0.197 ± 0.07
